In patent US20240076389A1:
One block for each binder: values may come before it.

How the values were obtained:
[1] = target: human AXL expressed on the cell surface of tumor cell lines (human) (UniProt P30530); test: cell-based or functional assay
[2] = target: huAXL-ECD displayed on yeast (human) (UniProt P30530); test: yeast surface display ELISA, non-denatured yeast, goat anti-human F(ab')2-HRP
Chain of huAXL-ECD displayed on yeast (human) (P30530 26-449, form in doubt): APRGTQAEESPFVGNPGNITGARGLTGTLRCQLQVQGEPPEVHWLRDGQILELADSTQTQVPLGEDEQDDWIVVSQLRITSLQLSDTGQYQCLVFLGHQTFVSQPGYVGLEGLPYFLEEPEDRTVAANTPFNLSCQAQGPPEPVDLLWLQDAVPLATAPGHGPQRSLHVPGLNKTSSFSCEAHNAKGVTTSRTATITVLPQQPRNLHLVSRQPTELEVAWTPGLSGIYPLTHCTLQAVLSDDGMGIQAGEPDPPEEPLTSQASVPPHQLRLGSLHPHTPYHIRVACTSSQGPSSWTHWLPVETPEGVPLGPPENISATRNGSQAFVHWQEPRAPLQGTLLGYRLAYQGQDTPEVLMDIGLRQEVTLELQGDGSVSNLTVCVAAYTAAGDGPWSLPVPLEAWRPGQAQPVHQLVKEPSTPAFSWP

Chain of human AXL expressed on the cell surface of tumor cell lines (human) (P30530 26-894): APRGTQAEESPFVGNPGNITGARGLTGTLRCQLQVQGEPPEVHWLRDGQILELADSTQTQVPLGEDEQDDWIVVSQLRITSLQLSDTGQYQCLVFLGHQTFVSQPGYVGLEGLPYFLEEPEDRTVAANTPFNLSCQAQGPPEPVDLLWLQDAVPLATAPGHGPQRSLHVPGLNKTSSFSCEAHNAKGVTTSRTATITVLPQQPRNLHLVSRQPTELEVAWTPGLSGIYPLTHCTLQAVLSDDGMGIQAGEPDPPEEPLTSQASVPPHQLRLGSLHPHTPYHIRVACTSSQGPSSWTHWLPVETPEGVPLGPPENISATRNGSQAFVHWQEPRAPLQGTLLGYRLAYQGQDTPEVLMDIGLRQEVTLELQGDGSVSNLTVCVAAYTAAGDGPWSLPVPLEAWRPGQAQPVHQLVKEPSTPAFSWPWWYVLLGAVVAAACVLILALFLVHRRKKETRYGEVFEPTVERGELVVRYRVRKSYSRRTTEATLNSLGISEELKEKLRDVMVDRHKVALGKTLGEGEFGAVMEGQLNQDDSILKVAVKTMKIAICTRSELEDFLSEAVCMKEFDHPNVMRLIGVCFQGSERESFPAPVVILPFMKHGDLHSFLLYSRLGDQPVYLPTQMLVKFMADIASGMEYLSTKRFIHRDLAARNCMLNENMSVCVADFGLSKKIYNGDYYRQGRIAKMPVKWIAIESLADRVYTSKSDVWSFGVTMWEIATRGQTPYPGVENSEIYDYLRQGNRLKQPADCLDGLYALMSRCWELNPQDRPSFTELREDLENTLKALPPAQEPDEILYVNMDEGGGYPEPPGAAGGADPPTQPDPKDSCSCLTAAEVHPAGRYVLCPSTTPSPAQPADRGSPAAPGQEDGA

B2: NRC-sdAb003-Fc (VHH-human IgG1 Fc fusion) (Fc fusion, not shown: a dimerising Fc or GST)
chain: QVQLVESGGGLVQAGGSLRLSCAASGVTLDYTAIGWFRQAPGKERELVAAITSGGNTDYAESAKGRFRISRDNSKNTIYLQMNSLKPEDTGVYYCAARRGGARGEYDYWDQGTQVTVSS
- yeast ELISA signal normalized to myc expression level [2]: 0.659

B3: hFC-F107-10G1 (antibody, human IgG1, kappa, V domains shown)
VH: EVNLVESGGGVVKPGASLKLSCEASGFTFSNYGMSWVRQTSDKRLEWVASISGGGGRTYYLDNVKGRFIISRENAKNTLYLQMSSLKSEDTALFYCARGARASYFAMDYWGQGSSVTVSS
VL: VIVMTQSHKFMSTSVGDRVSITCKASQDVTTAVAWYQQKPGQSPKLLIYWASTRHTGVPDRFTGSGSGTDYSLTISNVQTEDLAFYYCQQHFTTPLTFGAGTKLELKR
- yeast ELISA signal normalized to myc expression level [2]: 1.39

B5: NRC-sdAb001-Fc (VHH-human IgG1 Fc fusion) (Fc fusion, not shown: a dimerising Fc or GST)
chain: QVKLEESGGGLVQAGGSLRLSCTASASISSFDIMGWYRQAPGKQRELVAAITTLDIANYRDSVKGRFTISRDNAKNTVYLQMDSLKPEDTARYHCAAFQSDQNYWGQGTQVTVSS
- yeast ELISA signal normalized to myc expression level [2]: 1.03

B8: NRC-sdAb002-Fc (VHH-human IgG1 Fc fusion) (Fc fusion, not shown: a dimerising Fc or GST)
chain: QVQLVDSGGGLVQAGGSLRLSCATSTRTVSSAVMAWFRQAPEKVRDFVGFITNSGNILYDDSVKGRFTISRDNAQNTVYLQMNSLKPEDTAVYYCAAKWSFSSGYGDLRRAAMYDYWGQGTQVTVSS
- yeast ELISA signal normalized to myc expression level [2]: 0.882

Continued, values first:

- IC50 of growth inhibition (CellTiterGlo, 5 days) of NCI-H292 cells, -Gas6 [1]: 2.71 nM
B1: hFc-sdAb006-DM1 (Fc fusion, not shown: a dimerising Fc or GST)
chain: QVKLEESGGGLVQAGASLRLSCVASESIFGFNTMGWYRQAPGNERELVASISNSKRTMYADSVKGRFTISRDNAKNTVNLQMNNLKPEDTAVYYCRAWGIITSATVYWGQGTQVTVSS
modifications: DM1 conjugate (SMCC linker); sites not given

- IC50 of growth inhibition (CellTiterGlo, 5 days) of NCI-H292 cells, -Gas6 [1]: 0.887 nM
B4: hFc-sdAb001-DM1 (Fc fusion, not shown: a dimerising Fc or GST)
chain: B5 chain
modifications: DM1 conjugate (SMCC linker); sites not given

- IC50 of growth inhibition (CellTiterGlo, 5 days) of NCI-H292 cells, -Gas6 [1]: 0.034 nM
- IC50 of growth inhibition of NCI-H292 cells, +Gas6 (2 µg/mL) [1]: 0.24 nM
B6: hFc-sdAb008-DM1 (Fc fusion, not shown: a dimerising Fc or GST)
chain: QVKLEESGGGLVQAGGSLRLSCAASGSSGMINTMGWYRQAPGKQRELVARRSTGGTTNYADSVKGRFTISRDDANNTVYLQMNSLKPEDTAVYYCAIIWRTSDLTGRFNTWGQGTQVTVSS
modifications: DM1 conjugate (SMCC linker); sites not given

- IC50 of growth inhibition (CellTiterGlo, 5 days) of NCI-H292 cells, -Gas6 [1]: 6.66 nM
- IC50 of growth inhibition of NCI-H292 cells, +Gas6 (2 µg/mL) [1]: 3.78 nM
B7: hFc-sdAb005-DM1 (Fc fusion, not shown: a dimerising Fc or GST)
chain: QVKLEESGGGLAQAGGSLRLSCAASGSISSINTIGWFRQAPGKQRELVAASDSGANRNYADSVKGRFTISRDNAKNTVYLQMNNLKPEDTAIYYCRAWGTGTISTMYWGQGTQVTVSS
modifications: DM1 conjugate (SMCC linker); sites not given
